Laboratory results published in paper PMC11974885 (bioRxiv, 2025).

Target: T1, DbfS sensory domain, DbfS^SD-6xHis (Vibrio cholerae, UniProt Q9KRK1 43-171)
T1 sequence: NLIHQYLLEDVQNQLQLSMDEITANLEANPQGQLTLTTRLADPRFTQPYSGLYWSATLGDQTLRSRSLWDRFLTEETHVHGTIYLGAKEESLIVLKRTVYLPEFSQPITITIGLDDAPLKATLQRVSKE
Experiment: MST

B1: DbfQ (processed, 6xHis tag-cleaved) (natural protein)
chain: DNKVRDWEQGSYREGTQIEIDEDQDDVYRAVQKGLIRPFAELYATVDQQLNGRLIKVELDEDDDEWIYELKLVYDNQVFRVEYNAATLELMSIRGRNVIRAIKK
modifications: Red-NHS dye, amine-reactive, covalent (in the MST experiments only)
Kd: 30 nM
